The source of these data is patent publication EP4707292A2.

Test [1] deals with Adeno-associated virus 8 (AAV8) virion (adeno-associated virus 8). The test is described as follows: co-IP/LC-MS/MS, AAV8 + human serum vs PBS control.
The target of test [2] is Adeno-associated virus 9 (AAV9) virion (adeno-associated virus 9). The test is described as follows: co-IP with ADK9/LC-MS/MS, AAV9 + human serum vs control.
Test [3] has as its target Adeno-associated virus 2 (AAV2) virion (adeno-associated virus 2). As to the kind of experiment: cell-based or functional assay.
The target of test [4] is Adeno-associated virus 8 (AAV8) virion (adeno-associated virus 8). The test is described as follows: cell-based or functional assay.
Test [5] concerns the target Haploid virus AAV2/8 1:1 (adeno-associated virus 2; adeno-associated virus 8). As to the kind of experiment: cell-based or functional assay.
In test [6] the target is Haploid virus AAV2/8 1:3 (adeno-associated virus 2; adeno-associated virus 8). The test is described as follows: cell-based or functional assay.
In test [7] the target is Haploid virus AAV2/8 3:1 (adeno-associated virus 2; adeno-associated virus 8). The test is described as follows: cell-based or functional assay.

Sequence of Fibronectin, P02751 32-2477 (P02751 32-2477 limits assumed): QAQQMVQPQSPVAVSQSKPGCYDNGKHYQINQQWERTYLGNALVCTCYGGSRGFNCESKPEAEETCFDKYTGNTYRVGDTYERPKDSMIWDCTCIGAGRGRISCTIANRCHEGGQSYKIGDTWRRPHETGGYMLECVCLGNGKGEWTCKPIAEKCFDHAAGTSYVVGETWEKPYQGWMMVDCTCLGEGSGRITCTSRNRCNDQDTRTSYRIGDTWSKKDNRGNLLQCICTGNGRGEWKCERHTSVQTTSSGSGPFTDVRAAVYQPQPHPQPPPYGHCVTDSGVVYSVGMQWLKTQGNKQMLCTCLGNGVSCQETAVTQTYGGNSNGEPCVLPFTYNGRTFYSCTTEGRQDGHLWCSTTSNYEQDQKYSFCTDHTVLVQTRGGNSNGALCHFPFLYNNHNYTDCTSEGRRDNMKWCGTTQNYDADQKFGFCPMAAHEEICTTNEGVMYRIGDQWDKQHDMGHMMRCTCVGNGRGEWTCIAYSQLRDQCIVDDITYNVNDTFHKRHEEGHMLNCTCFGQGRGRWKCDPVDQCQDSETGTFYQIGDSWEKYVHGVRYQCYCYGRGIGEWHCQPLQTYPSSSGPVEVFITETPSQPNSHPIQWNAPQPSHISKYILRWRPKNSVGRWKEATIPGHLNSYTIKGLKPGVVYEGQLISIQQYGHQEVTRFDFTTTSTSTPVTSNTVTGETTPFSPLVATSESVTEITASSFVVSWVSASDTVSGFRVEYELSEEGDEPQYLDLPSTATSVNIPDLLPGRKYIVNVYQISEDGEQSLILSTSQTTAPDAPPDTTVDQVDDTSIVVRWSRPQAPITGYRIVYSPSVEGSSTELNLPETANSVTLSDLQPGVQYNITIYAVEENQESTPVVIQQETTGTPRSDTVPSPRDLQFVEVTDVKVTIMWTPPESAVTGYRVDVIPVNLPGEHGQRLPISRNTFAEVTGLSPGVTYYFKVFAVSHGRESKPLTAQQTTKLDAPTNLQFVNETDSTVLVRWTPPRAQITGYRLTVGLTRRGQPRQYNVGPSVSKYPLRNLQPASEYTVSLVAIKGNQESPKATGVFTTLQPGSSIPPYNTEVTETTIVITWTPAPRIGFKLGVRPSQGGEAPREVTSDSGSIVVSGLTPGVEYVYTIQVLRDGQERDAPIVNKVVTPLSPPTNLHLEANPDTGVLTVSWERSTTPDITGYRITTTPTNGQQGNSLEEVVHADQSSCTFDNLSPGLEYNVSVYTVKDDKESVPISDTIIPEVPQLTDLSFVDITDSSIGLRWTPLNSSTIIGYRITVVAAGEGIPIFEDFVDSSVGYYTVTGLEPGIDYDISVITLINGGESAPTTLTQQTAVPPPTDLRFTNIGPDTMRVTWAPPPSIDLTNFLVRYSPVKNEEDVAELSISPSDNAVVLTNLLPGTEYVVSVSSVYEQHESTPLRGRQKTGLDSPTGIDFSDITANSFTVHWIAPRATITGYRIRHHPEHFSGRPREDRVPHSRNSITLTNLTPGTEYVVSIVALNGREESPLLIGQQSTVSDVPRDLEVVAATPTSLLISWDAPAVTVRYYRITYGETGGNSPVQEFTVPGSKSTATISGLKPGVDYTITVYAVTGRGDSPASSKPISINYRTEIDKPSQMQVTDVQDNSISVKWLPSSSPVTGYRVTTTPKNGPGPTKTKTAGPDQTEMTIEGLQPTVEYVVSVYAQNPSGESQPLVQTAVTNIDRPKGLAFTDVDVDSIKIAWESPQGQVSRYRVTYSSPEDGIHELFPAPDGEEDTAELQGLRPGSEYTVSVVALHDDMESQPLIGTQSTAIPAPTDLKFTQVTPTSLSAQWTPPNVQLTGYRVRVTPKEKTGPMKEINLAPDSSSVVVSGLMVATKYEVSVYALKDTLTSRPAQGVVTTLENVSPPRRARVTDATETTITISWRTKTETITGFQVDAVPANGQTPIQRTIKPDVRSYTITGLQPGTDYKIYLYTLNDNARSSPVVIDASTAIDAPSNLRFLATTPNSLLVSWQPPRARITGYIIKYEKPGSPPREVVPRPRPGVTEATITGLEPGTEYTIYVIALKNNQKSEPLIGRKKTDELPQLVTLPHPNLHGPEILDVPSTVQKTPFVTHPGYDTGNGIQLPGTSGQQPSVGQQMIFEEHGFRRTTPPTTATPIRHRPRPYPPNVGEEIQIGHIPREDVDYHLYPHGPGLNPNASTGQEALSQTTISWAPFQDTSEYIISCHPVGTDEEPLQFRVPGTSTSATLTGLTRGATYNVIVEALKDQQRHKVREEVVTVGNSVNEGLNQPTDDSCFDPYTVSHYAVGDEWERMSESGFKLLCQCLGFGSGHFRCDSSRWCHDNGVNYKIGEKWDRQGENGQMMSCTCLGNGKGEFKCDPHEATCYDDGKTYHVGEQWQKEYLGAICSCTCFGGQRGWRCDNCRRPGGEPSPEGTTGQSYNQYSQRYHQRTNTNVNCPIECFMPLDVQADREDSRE
Sequence of Ig kappa chain V-I region EU (P01602 23-117 limits assumed): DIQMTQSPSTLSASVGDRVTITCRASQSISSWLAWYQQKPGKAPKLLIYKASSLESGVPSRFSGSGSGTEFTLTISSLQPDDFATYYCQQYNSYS

Consider “Alpha-2-HS-glycoprotein (from UniProt C9JV77 19-301; C9JV77 342-368)”, for which the fold change in test [1] and in test [2] was 3.17 fold each time.

Consider “Complement C4-A (from UniProt P0C0L4 20-1744)”, for which the fold change in test [1] and in test [2] was 2.42 fold throughout.

Take “Fibrinogen gamma chain (Fragment) (from UniProt C9JU00 1-123)”: the fold change in test [1] and in test [2] was 0.417 fold each time. In test [2], the Fold increase is 8.36 fold.

Turning to Fibronectin, P02751 32-2477, the fold change in test [1] was 2.5 fold. For the same substance, in test [2], the Fold increase was found to be 5.41 fold and the fold change is 2.5 fold.

“Ig kappa chain V-I region EU (from UniProt P01602 23-117)”: the fold change in test [1] and in test [2] was 3.83 fold each time.

Consider “Ig kappa chain V-III region SIE (from UniProt P01619 21-116)”, for which the fold change in test [1] and in test [2] was 2.79 fold each time.

In the case of “Ig lambda-2 chain C regions (from UniProt P0DOY2 1-106)”, the fold change in test [1] and in test [2] was 1.5 fold in each case.

Monoclonal antibody A20: in test [3], the A20 neutralizing antibody titer (the dilution at first time inhibits AAV transduction over 50%) (reciprocal dilution) came to 640. Besides, the Neutralization antibody titer (reciprocal dilution) was 512 in test [3]; below 2 in test [4]; 32 in test [5]; below 2 in test [6]; 2048 in test [7].

For the substance Monoclonal antibody ADK8, the Neutralization antibody titer (reciprocal dilution) is below 2 in test [3]; 1024 in test [4]; 512 in test [5]; 1024 in test [6]; 512 in test [7].

In the case of “Platelet factor 4 variant (from UniProt P10720 31-104)”, the fold change in test [1] stood at 0.938 fold. In test [2], the Fold increase is 1.47 fold and the fold change came out at 0.938 fold.

As to “Transthyretin (from UniProt P02766 21-147)”, the fold change in test [1] and in test [2] was 5.55 fold in each case.
